Assays:
b-CI-M6PR = target: T1, b-CI-M6PR (UniProt P08169); assay: Competitive binding of biotinylated CI-M6PR to adsorbed pentamannose 6-phosphate; details: competitive assay with pentamannose 6-phosphate ligand; read-out: Affinity for b-CI-M6PR (IC50) (converted)
T1 construct: fused on or other part: Chemical biotin label (biotin N-hydroxysuccinimide) for streptavidin-peroxidase detection; no fused protein
Description: Briefly, CI-M6PR, purified on a phosphomannane-sepharose affinity column, was biotinylated with biotin N-hydroxysuccinimide. […] The b-CI-M6PR bound to adsorbed PMP was then determined using streptavidin conjugated to the peroxidase and its substrate, o-phenylenediamine dihydrochloride (OPD), by optical density measurements. The 100% value corresponds to the concentration of b-CI-M6PR bound to PMP adsorbed in the absence of a competitor.

[1] = Pharmacokinetic profile in mice after single i.v. bolus; format: in vivo, C57BL/6J mice; details: single i.v. bolus 4 mg/kg, 21 days
Description: Mice were weighed before injection and throughout the experiment to monitor their health. Blood samples taken at 4 and 1, 2, 3, 7, 10, 14, 17 and 21 days post-injection were collected in tubes containing heparin and centrifuged at 3,000 g for 15 min, and the plasma was stored at −20° C. until measurement. Mice were sacrificed 21 days after injection.
The therapeutic antibody was detected using an HRP-conjugated anti-human IgG antibody specific for the Fc fragment, which was then quantified by a colorimetric assay with the OPD substrate and absorbance measure at 450 nm.

For `O=C[C@@H](O)[C@@H](O)[C@H](O)[C@H](O)COP(=O)(O)O` [M6P, mannose 6-phosphate], the IC50 (b-CI-M6PR) was 20 µM.
With adalimumab [mAb2, reference compound] the adverse clinical events [1] was “No adverse clinical events”.
With infliximab [mAb1, reference compound] the adverse clinical events [1] was “No adverse clinical events”.
